The target of this assay is phosphopeptide of SEQ ID NO: 32, containing the PI3K ligand pY.V.P.M.L. (SEQ ID NO: 31). As to the kind of experiment: SPR (BIAcore); phosphopeptide immobilized via its C-terminal lysine, SH2 peptide injected at 0.5, 0.67, 1.0, 2.0 and 4.0 uM. A general note: Surface plasmon resonance follows binding to a sensor surface in real time, without labels.

In the case of N-terminal SH2 peptide of the PI3K p85, the Ka (binding affinity, printed in nM) came to 160 nM.

(Values after patent US5981262.)
